Changes are numbered by the printed parent chain. Names and notes keep the numbering of the source.
T1: IL-18 receptors on HEK-Blue IL-18 reporter cells (UniProt Q13478 19-541; O95256 20-599, limits assumed)
T1 sequence (looked up) 1: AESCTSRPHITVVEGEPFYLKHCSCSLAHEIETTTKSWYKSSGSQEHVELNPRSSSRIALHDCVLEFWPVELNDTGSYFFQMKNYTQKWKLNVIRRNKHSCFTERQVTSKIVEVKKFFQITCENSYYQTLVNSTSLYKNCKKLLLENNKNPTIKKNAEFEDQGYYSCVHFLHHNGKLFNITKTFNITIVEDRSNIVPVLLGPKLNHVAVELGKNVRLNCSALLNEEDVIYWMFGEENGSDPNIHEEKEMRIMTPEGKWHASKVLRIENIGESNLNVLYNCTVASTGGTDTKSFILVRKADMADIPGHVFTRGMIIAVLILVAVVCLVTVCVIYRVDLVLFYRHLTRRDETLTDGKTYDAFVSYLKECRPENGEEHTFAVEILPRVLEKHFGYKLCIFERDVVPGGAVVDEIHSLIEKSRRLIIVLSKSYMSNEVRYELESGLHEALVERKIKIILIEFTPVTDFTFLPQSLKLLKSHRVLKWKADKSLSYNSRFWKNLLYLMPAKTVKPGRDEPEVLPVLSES
T1 sequence (looked up) 2: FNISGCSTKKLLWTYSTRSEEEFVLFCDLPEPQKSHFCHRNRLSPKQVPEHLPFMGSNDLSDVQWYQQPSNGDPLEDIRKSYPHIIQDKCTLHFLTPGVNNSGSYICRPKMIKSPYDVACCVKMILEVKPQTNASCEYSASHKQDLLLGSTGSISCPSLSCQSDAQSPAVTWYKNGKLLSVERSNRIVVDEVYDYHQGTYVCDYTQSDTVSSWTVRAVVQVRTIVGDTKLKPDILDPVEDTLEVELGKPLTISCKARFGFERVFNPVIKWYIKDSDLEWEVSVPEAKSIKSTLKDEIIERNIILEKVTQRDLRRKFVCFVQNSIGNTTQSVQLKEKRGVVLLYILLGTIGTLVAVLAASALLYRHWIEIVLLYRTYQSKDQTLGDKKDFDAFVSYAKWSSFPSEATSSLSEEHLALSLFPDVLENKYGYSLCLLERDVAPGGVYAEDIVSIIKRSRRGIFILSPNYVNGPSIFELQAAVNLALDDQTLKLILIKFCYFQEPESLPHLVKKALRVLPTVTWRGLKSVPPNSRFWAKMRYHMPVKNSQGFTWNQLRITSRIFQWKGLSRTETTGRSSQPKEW

T2: IL-18 binding protein (IL-18BP) (UniProt O95998 31-194)
T2 sequence (looked up): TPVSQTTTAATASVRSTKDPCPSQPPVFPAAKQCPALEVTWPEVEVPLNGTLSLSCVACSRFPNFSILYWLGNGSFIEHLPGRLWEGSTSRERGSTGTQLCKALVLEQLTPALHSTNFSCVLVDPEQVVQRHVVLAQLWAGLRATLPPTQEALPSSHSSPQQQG

B1: IL-18 variant G3D, E6Q, R27S, K53R, D54A, S55R, T63S, N91Q (ligand)
chain: YFDKLQSKLSVIRNLNDQVLFIDQGNSPLFEDMTDSDMRDNAPRTIFIISMYRARQPRGMAVSISVKSEKISTLSSENKIISFKEMNPPDQIKDTKSDIIFFQRSVPGHDNKMQFESSSYEGYFLASEKERDLFKLILKKEDELGDRSIMFTVQNED
B2: IL-18 variant G3V, E6Q, T34P, D54M, S55F, N91R, R104H (ligand)
chain: B1 chain with D3V, S27R, T34P, R53K, A54M, R55F, S63T, Q91R, R104H
B3: IL-18 variant G3P, E6S, K53R, D54Y, S55P, T63I, N91K (ligand)
chain: B1 chain with D3P, Q6S, S27R, A54Y, R55P, S63I, Q91K
B4: IL-18 variant E6D, D54T, S55W, T63S, N91S, R104T (ligand)
chain: B1 chain with D3G, Q6D, S27R, R53K, A54T, R55W, Q91S, R104T
B5: IL-18 variant G3P, E6K, K53T, D54Y, S55V, T63I, N91I (ligand)
chain: B1 chain with D3P, Q6K, S27R, R53T, A54Y, R55V, S63I, Q91I
B6: IL-18 variant E6N, D54N, S55N, N91H, R104P (ligand)
chain: B1 chain with D3G, Q6N, S27R, R53K, A54N, R55N, S63T, Q91H, R104P
B7: IL-18 variant K53T, D54H, S55V, T63A, N91K (ligand)
chain: B1 chain with D3G, Q6E, S27R, R53T, A54H, R55V, S63A, Q91K
B8: IL-18 variant G3P, E6N, D54Y, T63S, N91S, R104Q (ligand)
chain: B1 chain with D3P, Q6N, S27R, R53K, A54Y, R55S, Q91S, R104Q
B9: IL-18 variant G3P, E6G, D54P, S55W, N91E, R104K (ligand)
chain: B1 chain with D3P, Q6G, S27R, R53K, A54P, R55W, S63T, Q91E, R104K
B10: IL-18 variant N91S, R104H (ligand)
chain: B1 chain with D3G, Q6E, S27R, R53K, A54D, R55S, S63T, Q91S, R104H
B11: IL-18 variant G3H, E6Q, K53N, D54S, S55P, T63A, N91I, R104S (ligand)
chain: B1 chain with D3H, S27R, R53N, A54S, R55P, S63A, Q91I, R104S
B12: IL-18 variant G3L, E6N, I22M, T63V, N91T, R104P (ligand)
chain: B1 chain with D3L, Q6N, I22M, S27R, R53K, A54D, R55S, S63V, Q91T, R104P
B13: IL-18 variant G3Q, E6D, K53S, D54I, S55E, T63S, N91S, R104Q (ligand)
chain: B1 chain with D3Q, Q6D, S27R, R53S, A54I, R55E, Q91S, R104Q
B14: IL-18 variant G3P, E6R, K53T, D54Y, S55I, T63V, N91G, R104K (ligand)
chain: B1 chain with D3P, Q6R, S27R, R53T, A54Y, R55I, S63V, Q91G, R104K
B15: IL-18 variant G3S, E6Q, K53N, D54T, S55N, T63A, I80T, N91S (ligand)
chain: B1 chain with D3S, S27R, R53N, A54T, R55N, S63A, I80T, Q91S
B16: IL-18 variant G3R, E6D, D54A, S55Q, T63S, N91K, R104P (ligand)
chain: B1 chain with D3R, Q6D, S27R, R53K, R55Q, Q91K, R104P
B17: IL-18 variant G3P, E6K, K53N, D54S, S55P, T63S, N91S, R104Q (ligand)
chain: B1 chain with D3P, Q6K, S27R, R53N, A54S, R55P, Q91S, R104Q

target: T1, IL-18 receptors on HEK-Blue IL-18 …; experiment: cell-based or functional assay

Binder	Activity, No BP, DF-100000	Activity, No BP, DF-500000	Activity, No BP, DF-2500000
B1	1.02	0.41	0.13
B2	0.97	0.41	0.13
B3	0.15	0.08	0.07
B4	1.27	0.55	0.18
B5	0.26	0.11	0.07
B6	0.08	0.07	0.07
B7	0.28	0.12	0.12
B8	0.21	0.1	0.07
B9	0.09	0.08	0.07
B10	1.34	0.61	0.19
B11	0.18	0.09	0.07
B12	0.08	0.07	0.07
B13	0.09	0.07	0.07
B14	0.14	0.08	0.07
B15	0.24	0.11	0.08
B16	0.07	0.08	0.07
B17	0.07	0.08	0.07

target: T2, IL-18 binding protein (IL-18BP); experiment: cell-based or functional assay

Binder	Activity, +100 nM BP, DF-1000002	Activity, +100 nM BP, DF-5000003	Activity, +100 nM BP, DF-25000004	Ratio (-BP/+BP), DF-1000005	Ratio (-BP/+BP), DF-5000006	Ratio (-BP/+BP), DF-25000007
B1	0.52	0.15	0.09	1.95	2.81	1.5
B2	0.14	0.08	0.08	6.88	4.95	1.77
B3	0.14	0.08	0.07	1.07	0.97	0.99
B4	0.37	0.15	0.1	3.41	3.62	1.93
B5	0.32	0.11	0.08	0.81	1.01	0.93
B6	0.08	0.08	0.09	0.99	0.93	0.78
B7	0.23	0.1	0.07	1.18	1.24	1.58
B8	0.25	0.1	0.08	0.86	1.02	0.89
B9	0.09	0.1	0.07	0.98	0.84	0.92
B10	0.09	0.08	0.11	14.7	7.35	1.72
B11	0.21	0.12	0.08	0.86	0.78	0.91
B12	0.09	0.09	0.07	0.8	0.82	0.97
B13	0.12	0.09	0.11	0.73	0.8	0.68
B14	0.15	0.08	0.07	0.93	0.96	0.99
B15	0.23	0.11	0.11	1.05	1.03	0.71
B16	0.07	0.08	0.07	0.98	0.98	0.96
B17	0.07	0.07	0.07	0.92	1.03	0.95

— patent US20240182536A1 (MURAL ONCOLOGY, published 2024)
